# Assay results taken from patent US20060093553A1, “Cd26-based therapies for cancers and immune disease” (priority 2002, published 2006).
# B1: sCD26/DPPIV^−: mutant sCD26 without DPPIV activity, Ser630 replaced by Ala at the active site (protein)
# chain: MKGLLGAAALVTIITVPVVLLNKGTDDATADSRKTYTLTDYLKNTYRLKLYSLRWISDHEYLYKQENNILVFNAEYGNSSVFLENSTFDEFGHSINDYSISPDGQFILLEYNYVKQWRHSYTASYDIYDLNKRQLITEERIPNNTQWVTWSPVGHKLAYVWNNDIYVKIEPNLPSYRITWTGKEDIIYNGITDWVYEEEVFSAYSALWWSPNGTFLAYAQFNDTEVPLIEYSFYSDESLQYPKTVRVPYPKAGAVNPTVKFFVVNTDSLSSVTNATSIQITAPASMLIGDHYLCDVTWATQERISLQWLRRIQNYSVMDICDYDESSGRWNCLVARQHIEMSTTGWVGRFRPSEPHFTLDGNSFYKIISNEEGYRHICYFQIDKKDCTFITKGTWEVIGIEALTSDYLYYISNEYKGMPGGRNLYKIQLSDYTKVTCLSCELNPERCQYYSVSFSKEAKYYQLRCSGPGLPLYTLHSSVNDKGLRVLEDNSALDKMLQNVQMPSKKLDFIILNETKFWYQMILPPHFDKSKKYPLLLDVYAGPCSQKADTVFRLNWATYLASTENIIVASFDGRGSGYQGDKIMHAINRRLGTFEVEDQIEAARQFSKMGFVDNKRIAIWGWAYGGYVTSMVLGSGSGVFKCGIAVAPVSRWEYYDSVYTERYMGLPTPEDNLDHYRNSTVMSRAENFKQVEYLLIHGTADDNVHFQQSAQISKALVDVGVDFQAMWYTDEDHGIASSTAHQHIYTHMSHFIKQCFSLP
# Assays:
# Type in all cases: cell-based, Human
# [1] = system: CD86 expression on monocytes; experiment: Surface expression on monocytes (flow cytometry); details: after TT and sCD26 stimulation; FIG. 13
# Experimental: In studies assessing the expression of CD80, CD86, and HLA-DR on purified monocytes (0.5×10^6 monocytes/well), monocytes were preincubated with or without TT (0.5 μg/ml) for 16 h. Following incubation with sCD26 (0.5 μg/ml) for 24 h, FITC-conjugated CD80, CD86, and HLA-DR mAbs (10 μg/ml) were used with PE-conjugated anti-CD14 (10 μg/ml) to gate exclusively on the monocyte population. In experiments assessing the effect of M6P on cellular uptake of sCD26, purified monocytes (0.5×10^6 monocytes/well) were incubated with the appropriate concentration of M6P in the presence or absence of sCD26-OG for 24 h in standard medium. Cells were then washed twice in ice-cold PBS, followed by incubation for 2 min in acidic PBS (pH 3.0) to strip any sCD26-OG attached to the cell surface. Cells were washed in ice-cold PBS and were incubated with mouse Ig isotypes (1 μg/ml) to block nonspecific binding; this was followed by reaction with PE-conjugated anti-CD14 (10 μg/ml) to gate exclusively on monocyte population.
# (§1) Flow cytometric analysis of 10,000 viable cells was conducted on FACSCalibur (BD Biosciences, Mountain View, Calif.). Each experiment was repeated at least three times, and the results were provided in the form of a histogram of a representative experiment, or increased mean percent±SE fluorescent intensity compared with control or untreated cells.
# PBMC = experiment: TT-induced proliferation of PBMC, time-course ([3H]TdR incorporation); details: DPPIV-deficient mutant sCD26 in PBMC time-course
# Description: Human PBMC, collected from healthy adult volunteers who were immunized with TT within two years before donation, were isolated by centrifugation on Ficoll/Paque (Amersham Pharmacia Biotech, Piscataway, N.J.). PBMC were directly used for the time-course studies. For the reconstitution studies, PBMC were further purified into T cell fractions and APC fractions. To obtain a highly purified T cell population, PBMC were separated into an E rosette-positive (E^+) population and were used as resting T cells as determined by flow cytometric analysis (FACSCalibur; Nippon BD Biosciences, Tokyo, Japan) using an FITC-labeled anti-CD3 mAb (BD PharMingen, San Diego, Calif.) with purity being >95%. To obtain APC, an E rosette-negative (E^−) population was adhered to plastic plates for 4 h at 37° C., and adherent cells were used as APC. Monocytes were either purified by a flow cytometer on the basis of PE-labeled anti-CD14 mAb (BD PharMingen)-oriented parameter, or by negative selection through the use of immunomagnetic beads coated with an anti-CD3, CD7, CD19, CD45RA, CD56, and IgE mAb Qailtenyi Biotec, Auburn, Calif.) with purity being >95%. […]
# T-cell proliferation induced by APC was measured by [^3H]TdR (ICN Radiochemicals, Irvine, Calif.) uptake. […]
# [2] = system: monocytes and purified T cells; experiment: Reconstitution/fixation study: T cell proliferation with preincubated monocytes ([3H]TdR); details: TT-pulsed monocytes fixed with 0.05% glutaraldehyde before or after sCD26; FIGS. 12A, 12B
# Experimental: All cells were preincubated in the standard medium for 24 h to minimize the risk of potential interference from sCD26 present in human serum (Tanaka et al., 1993). In these studies, cells were incubated in 96-well plates (200 μl/well; Falcon, Franklin Lakes, N.J.). For the time-course study, 1.0×10^5 PBMC were incubated with 0.5 μg/ml TT for 16 h. Then, 0.5 μg/ml sCD26 was added to the well and was incubated for 0, 6, 12, 24, 48, 72, and 96 h. The day when the first sCD26 was added to the culture well was defined as day 0 of culture. All assays in proliferation experiments were performed on day 7 of culture after cells were incubated at 37° C. in a 5% CO2 humidified atmosphere. For the reconstitution study, 0.5×10^6 of monocytes were preincubated with TT, at a concentration of 0.5 μg/ml with different concentrations of sCD26 for 24 h. Monocytes were washed with PBS, and then 1×10^4/well of preincubated monocytes were subjected to the assay with 1×10^5/well of purified T cells from the same donor as the prepared monocytes. […]
# T-cell proliferation induced by APC was measured by [^3H]TdR (ICN Radiochemicals, Irvine, Calif.) uptake. Seven-day-incubated cells were pulsed with 1 μCi/well of [^3H]TdR 8 h before harvesting onto a glass-fiber filter (Wallac, Turk, Finland), and the incorporated radioactivity was quantified by a liquid scintillation counter (Wallac).
# monocytes = experiment: Confocal laser microscopy of sCD26 uptake
# Experimental: For fluorescent microscopy studies of uptake of sCD26 by monocytes; purified monocytes were incubated with sCD26-OG (1 μg/ml) with or without preincubation with. TT (0.5 μg/ml). Cells were then washed in ice-cold PBS twice and were incubated in acidic PBS (pH 3.0) to strip any sCD26-OG attached to the cell surface. The cells were then attached to microslide glass (Matsunami Glass, Tokyo, Japan) and fixed with 3% paraformaldehyde in PBS for 15 min at room temperature. Cells were blocked with mouse Ig isotypes (1 μg/ml) for 30 min at 4° C., followed by incubation with biotinylated anti-CD14 (10 μg/ml) for 30 min at 4° C., then washed with ice-cold PBS twice and incubated with streptavidin-conjugated Texas red conjugate (1/200; Beckman Coulter) for 30 min at 4° C. In studies of sCD26 uptake via M6P/IGF-IIR on monocytes, purified monocytes were incubated with or without TT for 16 h, and sCD26-OG and M6P/IGF-IIR-red were added to the culture well after being blocked with mouse Ig isotypes (1 μg/ml) for 30 min at 4° C. Cells were then incubated for 30 min at 4° C. For detection of cell surface colocalization, cells were washed in ice-cold PBS twice and were attached to microslide glass, followed by fixation with 3% paraformaldehyde in PBS for 15 min at room temperature. […]
# CD86 mRNA in monocytes = experiment: Relative quantitative RT-PCR assay; details: monocytes with TT 16 h then sCD26 0.5 μg/ml 24 h
# [3] = system: PBMC subpopulations (CD3, CD14, CD19, CD56); experiment: sCD26-OG incorporation into PBMC subpopulations (flow cytometry); details: 24 h, presence or absence of TT; FIG. 9
# Experimental: Assessment of the PBMC population that takes up sCD26-OG was performed with PE-conjugated anti-CD3, anti-CD14, anti-CD19, and anti-CD56 mAbs (10 μg/ml). For these experiments, 1×10^6 PBMC/well were incubated in standard medium containing sCD26-OG for 24 h with or without preincubation with TT. Cells were then washed twice in ice-cold PBS, followed by incubation for 2 min in acidic PBS (pH 3.0) to strip any sCD26-OG attached to the cell surface. Cells were subsequently washed in ice-cold PBS and were incubated with mouse Ig isotypes (1 μg/ml) to block nonspecific binding; this was followed by reaction with PE-conjugated mabs.
# as §1
molecule,measurement,setting,value
B1,CD86 expression on monocytes,[1],did not affect CD86 expression
same,enhancing effect of TT-induced T cell proliferation,PBMC,not observed
same,"enhanced T cell proliferation, fixation study",[2],seen only when the monocytes were incubated with sCD26/DPPIV^+ before fixation
same,intracellular detection of sCD26 in monocytes,monocytes; 36 h after incubation of monocytes with sCD26,no longer detectable intracellularly
same,uptake by monocytes (confocal microscopy),monocytes; sCD26-OG 1 μg/ml,clearly taken up by monocytes
same,CD86 mRNA levels (RT-PCR),CD86 mRNA in monocytes,did not demonstrate enhanced CD86 mRNA levels
same,CD86 mRNA levels (RT-PCR),CD86 mRNA in monocytes; listed as sCD26/DPPIV^+,increased mRNA levels
same,PBMC population that takes up sCD26,[3],preferentially taken up by CD14-positive monocytes
